These results are taken from CN113416248A (INST MILITARY MEDICINE ACADEMY MILITARY SCIENCES PLA, dated 2021).

The test concerns the target T1, 金黄色葡萄球菌B型肠毒素(SEB)抗原 (Staphylococcus aureus enterotoxin B) (Staphylococcus aureus, UniProt P01552 28-266).
T1 sequence: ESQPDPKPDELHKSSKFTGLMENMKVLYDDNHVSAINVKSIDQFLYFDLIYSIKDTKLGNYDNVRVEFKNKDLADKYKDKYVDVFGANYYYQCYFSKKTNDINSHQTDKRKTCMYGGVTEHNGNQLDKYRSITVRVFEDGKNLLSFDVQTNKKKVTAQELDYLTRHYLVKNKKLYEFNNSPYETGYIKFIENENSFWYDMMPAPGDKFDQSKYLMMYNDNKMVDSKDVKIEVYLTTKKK
The experiment in a line: monoclonal phage ELISA on coated SEB antigen, anti-M13-HRP, OD450.

B1: 抗肠毒素的纳米抗体 (anti-SEB nanobody, heavy chain variable region SEQ ID NO: 8) (VHH)
VHH: QVQLVESGGGSVQAGASLTLSCVVSVRTDSYAMGWMRQAPGKEREVIAGVSWSGQSTTYADSVKGRFTISRDNAKRAVYLQMGNLKPEDTAVYYCAMGRAPFYIGLTSEPEAYESWGQGTQVTVSL
Regarding B1, the binding result is “binds”.
